Measured values from PMC9595563.

Target: the RBD of spike (depending on domain and variant)
Assay: ELISA

Chain of LRRC15-Fc (Q8TF66 22-538): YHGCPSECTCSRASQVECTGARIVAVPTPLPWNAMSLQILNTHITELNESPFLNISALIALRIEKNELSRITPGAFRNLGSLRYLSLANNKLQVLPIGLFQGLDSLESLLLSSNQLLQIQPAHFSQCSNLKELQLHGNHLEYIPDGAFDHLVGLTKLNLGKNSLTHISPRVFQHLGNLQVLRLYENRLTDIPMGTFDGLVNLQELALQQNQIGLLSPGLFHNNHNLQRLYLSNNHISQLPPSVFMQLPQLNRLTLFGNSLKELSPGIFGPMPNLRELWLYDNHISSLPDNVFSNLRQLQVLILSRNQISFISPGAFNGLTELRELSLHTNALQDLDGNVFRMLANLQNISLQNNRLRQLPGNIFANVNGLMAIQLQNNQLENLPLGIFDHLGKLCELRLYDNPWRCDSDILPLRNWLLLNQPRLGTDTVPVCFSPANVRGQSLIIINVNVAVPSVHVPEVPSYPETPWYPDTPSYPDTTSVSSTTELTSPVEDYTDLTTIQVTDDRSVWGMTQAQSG

LRRC15-Fc (from UniProt Q8TF66) (Fc fusion)
Kd: 43 to 148 nM
